Data taken from patent US9187762B2, “Compositions and methods comprising sequences having hydroxyphenylpyruvate dioxygenase (HPPD) activity” (PIONEER HI-BRED INTERNATIONAL, INC., priority 2010, dated 2015).

Experiments:
[1] = tested on: soybean HPPD; test: HPPD activity, coupled assay with HGD; substrate saturation kinetics (KM, kcat); assay type: biochemical; conditions: soy HPPD, wt and improved
Source text: HPPD catalyzes the conversion of 4-hydroxyphenylpyruvate (HPP) to homogentisate. See, FIG. 1. […] However, the product of the ensuing reaction in tyrosine metabolism, maleylacetoacetate, absorbs strongly at 320 nm. Furthermore, the enzyme catalyzing that reaction is also a dioxygenase having similar mechanism and buffer requirements as HPPD, making homogentisate dioxygenase (HGD) an ideal partner in a coupled assay, as shown.
The HDG gene from Pseudomonas aeruginosa (Amaya (2004) Arch Biochem Biophys 421, 135-142) was cloned into pVER7062 and electroporated into E. coli strain BL21(DE3). The enzyme was produced by methods similar to those described for HPPD. The purified enzyme has a KM for homogentisate of 23 uM and a kcat of 100/sec, properties highly suited for instantly converting the homogentisate produced by HPPD to maleylacetoacetate.
(§1) HPPD activity was measured by placing an aliquot (e.g., 6 ul) of the substrate HPP at 50-fold the desired final concentration into the wells of a low UV-absorbing assay plate. Reactions were started by adding a mixture (e.g., 294 ul) containing 25 mM Hepes, pH 7, 2 mM ascorbate, 10 uM FeSO4, 1 to 100 uM HPP, 50 nM HGD and 5 to 240 nM HPPD. Absorbance at 320 nm was monitored continuously in a plate-reading spectrophotometer (Spectramax, Molecular Devices).
(§2) The catalytic performance of wild-type HPPD and variants generated by shuffling was assessed by determining the substrate saturation parameters. The Michaelis-Menten kinetics protocol of the Spectramax software was customized for HPP concentrations ranging from 3.33 uM to 100 uM, or up to 1 mM if required. Reaction rates were measured as described above for each concentration of HPP. The software returns values of KM and Vmax using the Lineweaver-Burke transformation of the Michaelis-Menten equation.
(§3) The amino acid substitutions identified during the shuffling and mutagenesis of the maize HPPD gene can be made at analogous positions in other HPPD proteins to improve their insensitivity toward HPPD-inhibiting herbicides. The sequences of native and improved maize HPPD were aligned with those of sorghum (Genbank accession number XP002453359) and soybean (Genbank accession number ABQ96868), and the motif substitutions were designed accordingly, as shown in FIG. 14. The genes designed for improvement were synthesized commercially, inserted into vector pVER7062 and expressed, purified and evaluated as in Example 1.

[2] = tested on: G. max HPPD; test: ON/OFF rate ratio insensitivity parameters of HPPD with maize motif substitutions; assay type: biochemical, Glycine max; conditions: for OFF ratio / ON ratio / ON × OFF Fold vs wt / ON × OFF Value: soy HPPD
Procedure: (§4) [formula] Higher KD (reduced affinity or increased insensitivity) can be attained with a numerically smaller ON rate, a larger OFF rate or both. […] The ratio of the reaction rate with inhibitor to that without inhibitor during the 70 to 90 second interval of the reaction was termed the “ON rate ratio”. […] Incubations with the same concentrations of enzyme but no mesotrione were done in parallel. After 1 hr at room temperature, 5 to 10 ul of the enzyme-inhibitor complex was dispensed into the wells of the assay plate. Reactions were started with the addition of 290 to 295 ul of 25 mM Hepes, pH 7, 2 mM ascorbate, 10 uM FeSO4, 100 uM HPP and 50 nM HGD. The reactions were monitored at 320 nm for 12 min. Reaction velocity accelerates as inhibitor is released from the enzyme until a steady state is reached, during which the reaction velocity is constant. The ratio of the steady state rate in mixtures containing mesotrione (or other herbicidal inhibitor) to the initial velocity of mixtures lacking inhibitor is termed the “OFF rate ratio”. Another parameter to record is the time span required for the reactions with inhibitor to reach the steady state. […] It is not certain that the steady state attained in the OFF rate reactions actually represents an equilibrium where OFF rates are now equal to ON rates. Because substrate and inhibitors bind in the same site, the high concentration of substrate present may competitively trap the inhibitor and prevent it from binding again. To be sure that improvement in ON rates is being taken into account, the ON and OFF rate ratios were multiplied together and the product is termed the “insensitivity parameter”.

[3] = tested on: S. bicolor HPPD; test: as above; assay type: biochemical, Sorghum bicolor; conditions: sorghum HPPD
Procedure: as §4

[4] = tested on: S. bicolor HPPD; test: HPPD activity, coupled assay with HGD; substrate saturation kinetics; assay type: biochemical, Sorghum bicolor; conditions: sorghum HPPD, wt and improved
Procedure: as §1, §2, §3

B1: GE010082: Glycine max variant HPPD with maize motif substitutions, SEQ ID NO: 458 (protein)
chain: MPIPMCNEIQAQAQAQAQAQPGFKLVGFKNFVRTNPKSDRFQVNRFHHIEFWCTDATNASRRFSWGLGMPIVAKSDLSTGNQIHASYLLRSGDLSFLFSAPYSPSLSAGSSAASSASIPSFDAATCLAFAAKHGFGVRAIALEVADAEAAFSASVAKGAEPASPPVLVDDRTGFAEVRLYGDVVLRYVSYKDAAPQAPHADPSRWFLPGFEAAASSSSFPELDYGIRRLDHAVGNVPELAPAVAYMAGFSGFHEFAEFTAEDVGTSESGLNSMALANNSETVLLPLNEPVYGTKRKSQIETYLEHNEGAGVQHLALVTHDIFTTLREMRKRSFLGGFEFMPSPPPTYYANLHNCAADVLTVDQIKQCEELGIMVDRDDQGTLLQIFTKPVGDRPTIFIEIIQRIGCMVEDEEGKVYQKGACGGFGKGNFGELFKSIEEYEKTLEAKRTAGLTVNS
modifications: HPPD variant
Work on B1 yielded a Km [1] of 14 µM, a kcat [1] of 13 and an OFF ratio ([2]; Mesotrione) of 0.219. For the same molecule, the ON ratio ([2]; Mesotrione) was 0.444, the “ON × OFF Fold vs wt” value ([2]; Mesotrione) was 2.41 and the “ON × OFF Value” ([2]; Mesotrione) was 0.097. For the same molecule, the OFF ratio ([2]; Tembotrione) was 0.070, the ON ratio ([2]; Tembotrione) was 0.321 and the “ON × OFF Fold vs wt” value ([2]; Tembotrione) was 5.10. For the same molecule, the “ON × OFF Value” ([2]; Tembotrione) was 0.0224, the “improvement of insensitivity vs native protein” value ([2]; mesotrione) was 2.41 fold and the “improvement of insensitivity vs native protein” value ([2]; tembotrione) was 5.10 fold.

B2: SEQ ID NO: 2 (protein)
chain: MAIPMCNEIQAQAQAQAQAQPGFKLVGFKNFVRTNPKSDRFQVNRFHHIEFWCTDATNASRRFSWGLGMPIVAKSDLSTGNQIHASYLLRSGDLSFLFSAPYSPSLSAGSSAASSASIPSFDAATCLAFAAKHGFGVRAIALEVADAEAAFSASVAKGAEPASPPVLVDDRTGFAEVRLYGDVVLRYVSYKDAAPQAPHADPSRWFLPGFEAAASSSSFPELDYGIRRLDHAVGNVPELAPAVRYLKGFSGFHEFAEFTAEDVGTSESGLNSVVLANNSETVLLPLNEPVYGTKRKSQIETYLEHNEGAGVQHLALVTHDIFTTLREMRKRSFLGGFEFMPSPPPTYYANLHNRAADVLTVDQIKQCEELGILVDRDDQGTLLQIFTKPVGDRPTIFIEIIQRIGCMVEDEEGKVYQKGACGGFGKGNFSELFKSIEEYEKTLEAKRTA
modifications: Glycine max
Work on B2 yielded a Km [1] of 2 µM, a kcat [1] of 83 and an OFF ratio ([2]; Mesotrione) of 0.135. The ON ratio ([2]; Mesotrione) was 0.299, the “ON × OFF Value” ([2]; Mesotrione) was 0.040 and the OFF ratio ([2]; Tembotrione) was 0.044. For the same molecule, the ON ratio ([2]; Tembotrione) was 0.102 and the “ON × OFF Value” ([2]; Tembotrione) was 0.0044.

B3: SEQ ID NO: 394 (protein)
chain: MPPTPTTAAATGAAVAAASAEQAAFRLVGHRNFVRVNPRSDRFHTLAFHHVELWCADAASAAGRFSFGLGAPLAARSDLSTGNTAHASLLLRSGALAFLFTAPYAHGADAATASLPSFSAAEARRFAADHGLAVRAVALRVADAEDAFRASVAAGARPAFEPVELGLGFRLAEVELYGDVVLRYVSYPDDADASFLPGFVGVTSPGAADYGLRRFDHIVGNVPELAPAAAYFAGFTGFHEFAEFTAEDVGTTESGLNSMVLANNAENVLLPLNEPVHGTKRRSQIQTYLDHHGGPGVQHMALASDDVLRTLREMQARSAMGGFEFMAPPAPEYYDGVRRRAGDVLTEAQIKECQELGVLVDRDDQGVLLQIFTKPVGDRPTLFLEIIQRIGCMEKDEKGQEYQKGGCGGFGKGNFSQLFKSIEDYEKSLEAKQAAAAQGS
modifications: Sorghum bicolor
For B3, the OFF ratio ([3]; Mesotrione) was 0.199, the ON ratio ([3]; Mesotrione) was 0.227 and the “ON × OFF Value” ([3]; Mesotrione) was 0.045. The OFF ratio ([3]; Tembotrione) was 0.032, the ON ratio ([3]; Tembotrione) was 0.210 and the “ON × OFF Value” ([3]; Tembotrione) was 0.0067. It also gave a Km [4] of 4.9 µM and a kcat [4] of 246.

B4: GE010083 (protein)
chain: MPPTPTTAAATGAAVAAASAEQAAFRLVGHRNFVRVNPRSDRFHTLAFHHVELWCADAASAAGRFSFGLGAPLAARSDLSTGNTAHASLLLRSGALAFLFTAPYAHGADAATASLPSFSAAEARRFAADHGLAVRAVALRVADAEDAFRASVAAGARPAFEPVELGLGFRLAEVELYGDVVLRYVSYPDDADASFLPGFVGVTSPGAADYGLRRFDHIVGNVPELAPAAAYMAGFTGFHEFAEFTAEDVGTTESGLNSMALANNAENVLLPLNEPVHGTKRRSQIQTYLDHHGGPGVQHIALASDDVLRTLREMQARSAMGGFEFLPPPLSEYYDGVRRCAGDVLTEAQIKECQELGVMVDRDDQGVLLQIFTKPVGDRPTLFLEIIQRIGCMEKDEKGQEYQKGGCGGFGKGNFGQLFKSIEDYEKSLEAKQAAAAQGS
modifications: HPPD variant
B4 was tested, and the OFF ratio ([3]; Mesotrione) was 0.436, the ON ratio ([3]; Mesotrione) was 0.634 and the “ON × OFF Fold vs wt” value ([3]; Mesotrione) was 6.13. The “ON × OFF Value” ([3]; Mesotrione) was 0.277, the OFF ratio ([3]; Tembotrione) was 0.071 and the ON ratio ([3]; Tembotrione) was 0.730. For the same molecule, the “ON × OFF Fold vs wt” value ([3]; Tembotrione) was 7.71, the “ON × OFF Value” ([3]; Tembotrione) was 0.0517 and the Km [4] was 5.35 µM. The kcat [4] was 87.
